B1: Hairpin Ribozyme (parent)
chain: GUCCUCUUUCACGUGCGCGUGAAAGAGAGAAGUGAACCAGAGAAACACACGUUGUGGUAUAUUACCUGGUA

Variants of: B1
Test: self-cleavage, relative activity (ratio to wild type); higher = more cleavage; co-transcriptional

Variant | self-cleavage
GUCCUCUUUCACGUGCGCGUGAAAGAGAGAAGUGAACCAGAGAAACACACGUUCUGGUAUUUUACCUGGUA [G54C A61U] | 0.105
GUCCUCUUUCACGUGCGCGUGAAAGAGAGAAGUGAACCAGAGAAACACACGUUCUGGUAUGUUACCUGGUA [G54C A61G] | 0.0386
GUCCUCUUUCACGUGCGCGUGAAAGAGAGAAGUGAACCAGAGAAACACACGUUAUGGUAUAGUACCUGGUA [G54A U62G] | 0.0558
GUCCUCUUUCACGUGCGCGUGAAAGAGAGAAGUGAACCAGAGAAACACACGUUAUGGUAUAAUACCUGGUA [G54A U62A] | 0.188
GUCCUCUUUCACGUGCGCGUGAAAGAGAGAAGUGAACCAGAGAAACACACGUUAUGGUAUAUUACAUGGUA [G54A C66A] | 0.229
GUCCUCUUUCACGUGCGCGUGAAAGAGAGAAGUGAACCAGAGAAACACACGUUAUGGUAUAUUACUUGGUA [G54A C66U] | 0.272
GUCCUCUUUCACGUGCGCGUGAAAGAGAGAAGUGAACCAGAGAAACACACGUUCUGGUAUAUAACCUGGUA [G54C U63A] | 0.103
GUCCUCUUUCACGUGCGCGUGAAAGAGAGAAGUGAACCAGAGAAACACACGUUCUGGUAUAUCACCUGGUA [G54C U63C] | 0.099
GUCCUCUUUCACGUGCGCGUGAAAGAGAGAAGUGAACCAGAGAAACACACGUUCUGGUAUAUUACCUCGUA [G54C G68C] | 0.221
GUCCUCUUUCACGUGCGCGUGAAAGAGAGAAGUGAACCAGAGAAACACACGUUCUGGUAUAUUACCUUGUA [G54C G68U] | 0.158
GUCCUCUUUCACGUGCGCGUGAAAGAGAGAAGUGAACCAGAGAAACACACGUGGUGGUAUAAUACCUGGUA [U53G U62A] | 0.0694
GUCCUCUUUCACGUGCGCGUGAAAGAGAGAAGUGAACCAGAGAAACACACGUUCUGGUAUAGUACCUGGUA [G54C U62G] | 0.141
GUCCUCUUUCACGUGCGCGUGAAAGAGAGAAGUGAACCAGAGAAACACACGUUUUCGUAUAUUACCUGGUA [G54U G56C] | 0.24
GUCCUCUUUCACGUGCGCGUGAAAGAGAGAAGUGAACCAGAGAAACACACGUUUUAGUAUAUUACCUGGUA [G54U G56A] | 0.114
GUCCUCUUUCACGUGCGCGUGAAAGAGAGAAGUGAACCAGAGAAACACACGUGGUGGUAUAUUACCUAGUA [U53G G68A] | 0.179
GUCCUCUUUCACGUGCGCGUGAAAGAGAGAAGUGAACCAGAGAAACACACGUCGUGGUAUAUAACCUGGUA [U53C U63A] | 0.177
GUCCUCUUUCACGUGCGCGUGAAAGAGAGAAGUGAACCAGAGAAACACACGUCGUGGUAUAUCACCUGGUA [U53C U63C] | 0.0362
GUCCUCUUUCACGUGCGCGUGAAAGAGAGAAGUGAACCAGAGAAACACACGUCGUGGUAUAUGACCUGGUA [U53C U63G] | 0.144
GUCCUCUUUCACGUGCGCGUGAAAGAGAGAAGUGAACCAGAGAAACACACGUUUUGGUAUCUUACCUGGUA [G54U A61C] | 0.152
GUCCUCUUUCACGUGCGCGUGAAAGAGAGAAGUGAACCAGAGAAACACACGUUCUGGUAUAUUACGUGGUA [G54C C66G] | 0.237
GUCCUCUUUCACGUGCGCGUGAAAGAGAGAAGUGAACCAGAGAAACACACGUGGUGGUAUAUUACCUGGAA [U53G U70A] | 0.712
GUCCUCUUUCACGUGCGCGUGAAAGAGAGAAGUGAACCAGAGAAACACACGUGGUGGUAUAUUACCUGGCA [U53G U70C] | 0.783
GUCCUCUUUCACGUGCGCGUGAAAGAGAGAAGUGAACCAGAGAAACACACGUUCUGAUAUAUUACCUGGUA [G54C G57A] | 0.0995
GUCCUCUUUCACGUGCGCGUGAAAGAGAGAAGUGAACCAGAGAAACACACGUUUUGGUAUAUUACCUGGUU [G54U A71U] | 0.333
GUCCUCUUUCACGUGCGCGUGAAAGAGAGAAGUGAACCAGAGAAACACACGUUUUGGUAUAUUACCUGGUG [G54U A71G] | 0.552
GUCCUCUUUCACGUGCGCGUGAAAGAGAGAAGUGAACCAGAGAAACACACGUUUUGGUGUAUUACCUGGUA [G54U A59G] | 0.148

Variant | self-cleavage
GUCCUCUUUCACGUGCGCGUGAAAGAGAGAAGUGAACCAGAGAAACACACGUGGUGGUAUAUUAUCUGGUA [U53G C65U] | 0.413
GUCCUCUUUCACGUGCGCGUGAAAGAGAGAAGUGAACCAGAGAAACACACGUGGUGGUAUAUUAGCUGGUA [U53G C65G] | 0.0347
GUCCUCUUUCACGUGCGCGUGAAAGAGAGAAGUGAACCAGAGAAACACACGUUUUGGUAUAUUACGUGGUA [G54U C66G] | 0.181
GUCCUCUUUCACGUGCGCGUGAAAGAGAGAAGUGAACCAGAGAAACACACGUUAUGGUAUAUUACCUGGUG [G54A A71G] | 0.426
GUCCUCUUUCACGUGCGCGUGAAAGAGAGAAGUGAACCAGAGAAACACACGUUAUGGUAUAUUACCUGGUU [G54A A71U] | 0.309
GUCCUCUUUCACGUGCGCGUGAAAGAGAGAAGUGAACCAGAGAAACACACGUUAUGCUAUAUUACCUGGUA [G54A G57C] | 0.149
GUCCUCUUUCACGUGCGCGUGAAAGAGAGAAGUGAACCAGAGAAACACACGUUAUGGUACAUUACCUGGUA [G54A U60C] | 0.912
GUCCUCUUUCACGUGCGCGUGAAAGAGAGAAGUGAACCAGAGAAACACACGUUAUGGUAAAUUACCUGGUA [G54A U60A] | 0.409
GUCCUCUUUCACGUGCGCGUGAAAGAGAGAAGUGAACCAGAGAAACACACGUGGUGGUAUAUUACCUGGUG [U53G A71G] | 0.73
GUCCUCUUUCACGUGCGCGUGAAAGAGAGAAGUGAACCAGAGAAACACACGUUUUGCUAUAUUACCUGGUA [G54U G57C] | 0.177
GUCCUCUUUCACGUGCGCGUGAAAGAGAGAAGUGAACCAGAGAAACACACGUUUUGUUAUAUUACCUGGUA [G54U G57U] | 0.282
GUCCUCUUUCACGUGCGCGUGAAAGAGAGAAGUGAACCAGAGAAACACACGUUUUGAUAUAUUACCUGGUA [G54U G57A] | 0.164
GUCCUCUUUCACGUGCGCGUGAAAGAGAGAAGUGAACCAGAGAAACACACGUGGUGGUAGAUUACCUGGUA [U53G U60G] | 0.704
GUCCUCUUUCACGUGCGCGUGAAAGAGAGAAGUGAACCAGAGAAACACACGUUCUGGUAUAUUCCCUGGUA [G54C A64C] | 0.104
GUCCUCUUUCACGUGCGCGUGAAAGAGAGAAGUGAACCAGAGAAACACACGUUCUGGUAUAUUACCGGGUA [G54C U67G] | 0.174
GUCCUCUUUCACGUGCGCGUGAAAGAGAGAAGUGAACCAGAGAAACACACGUGGUGGUAUAUUACCUGAUA [U53G G69A] | 0.363
GUCCUCUUUCACGUGCGCGUGAAAGAGAGAAGUGAACCAGAGAAACACACGUUUUGGUAUAAUACCUGGUA [G54U U62A] | 0.229
GUCCUCUUUCACGUGCGCGUGAAAGAGAGAAGUGAACCAGAGAAACACACGUUUUGGUAUAGUACCUGGUA [G54U U62G] | 0.166
GUCCUCUUUCACGUGCGCGUGAAAGAGAGAAGUGAACCAGAGAAACACACGUUAUGGUAUAUUACCUGGGA [G54A U70G] | 0.387
GUCCUCUUUCACGUGCGCGUGAAAGAGAGAAGUGAACCAGAGAAACACACGUUAUGGUAUAUUACCUGGCA [G54A U70C] | 0.244
GUCCUCUUUCACGUGCGCGUGAAAGAGAGAAGUGAACCAGAGAAACACACGUUAUGGUAUAUUACCUGGAA [G54A U70A] | 0.409
GUCCUCUUUCACGUGCGCGUGAAAGAGAGAAGUGAACCAGAGAAACACACGUGGUGGUAUAUUACAUGGUA [U53G C66A] | 0.131
GUCCUCUUUCACGUGCGCGUGAAAGAGAGAAGUGAACCAGAGAAACACACGUUCUGGUAUAUUACCUGGUU [G54C A71U] | 0.243
GUCCUCUUUCACGUGCGCGUGAAAGAGAGAAGUGAACCAGAGAAACACACGUUCUGGUAUAUUACCUGGUC [G54C A71C] | 0.961
GUCCUCUUUCACGUGCGCGUGAAAGAGAGAAGUGAACCAGAGAAACACACGUGGUGGUAUAUAACCUGGUA [U53G U63A] | 0.13
GUCCUCUUUCACGUGCGCGUGAAAGAGAGAAGUGAACCAGAGAAACACACGUGGUGGUAUAUCACCUGGUA [U53G U63C] | 0.241

Variant | self-cleavage
GUCCUCUUUCACGUGCGCGUGAAAGAGAGAAGUGAACCAGAGAAACACACGUUAUCGUAUAUUACCUGGUA [G54A G56C] | 0.0439
GUCCUCUUUCACGUGCGCGUGAAAGAGAGAAGUGAACCAGAGAAACACACGUGGUGGUAUAUUACCUGGUA [U53G] | 0.86
GUCCUCUUUCACGUGCGCGUGAAAGAGAGAAGUGAACCAGAGAAACACACGUCGUGGUAUAAUACCUGGUA [U53C U62A] | 0.119
GUCCUCUUUCACGUGCGCGUGAAAGAGAGAAGUGAACCAGAGAAACACACGUUUAGGUAUAUUACCUGGUA [G54U U55A] | 0.354
GUCCUCUUUCACGUGCGCGUGAAAGAGAGAAGUGAACCAGAGAAACACACGUUUUGGUAUAUUACCUGCUA [G54U G69C] | 0.194
GUCCUCUUUCACGUGCGCGUGAAAGAGAGAAGUGAACCAGAGAAACACACGUUUUGGUAUAUUACCUGUUA [G54U G69U] | 0.182
GUCCUCUUUCACGUGCGCGUGAAAGAGAGAAGUGAACCAGAGAAACACACGUUCUGGUAUAUUAGCUGGUA [G54C C65G] | 0.151
GUCCUCUUUCACGUGCGCGUGAAAGAGAGAAGUGAACCAGAGAAACACACGUUCUGGUAUAUUAUCUGGUA [G54C C65U] | 0.132
GUCCUCUUUCACGUGCGCGUGAAAGAGAGAAGUGAACCAGAGAAACACACGUUAUGGUAUAUUACCCGGUA [G54A U67C] | 0.12
GUCCUCUUUCACGUGCGCGUGAAAGAGAGAAGUGAACCAGAGAAACACACGUUAUGGUAUAUUACCAGGUA [G54A U67A] | 0.206
GUCCUCUUUCACGUGCGCGUGAAAGAGAGAAGUGAACCAGAGAAACACACGUGGUGGUAUAUUGCCUGGUA [U53G A64G] | 0.599
GUCCUCUUUCACGUGCGCGUGAAAGAGAGAAGUGAACCAGAGAAACACACGUUUUGGUAUAUUUCCUGGUA [G54U A64U] | 0.114
GUCCUCUUUCACGUGCGCGUGAAAGAGAGAAGUGAACCAGAGAAACACACGUUCUGGUAUAUUACCUGCUA [G54C G69C] | 0.0871
GUCCUCUUUCACGUGCGCGUGAAAGAGAGAAGUGAACCAGAGAAACACACGUUAUGGUAUAUAACCUGGUA [G54A U63A] | 0.209
GUCCUCUUUCACGUGCGCGUGAAAGAGAGAAGUGAACCAGAGAAACACACGUUCUGGGAUAUUACCUGGUA [G54C U58G] | 0.272
GUCCUCUUUCACGUGCGCGUGAAAGAGAGAAGUGAACCAGAGAAACACACGUUCUGGAAUAUUACCUGGUA [G54C U58A] | 0.334
GUCCUCUUUCACGUGCGCGUGAAAGAGAGAAGUGAACCAGAGAAACACACGUUCUGGCAUAUUACCUGGUA [G54C U58C] | 0.478
GUCCUCUUUCACGUGCGCGUGAAAGAGAGAAGUGAACCAGAGAAACACACGUUUUGGUAUAUUACCGGGUA [G54U U67G] | 0.171
GUCCUCUUUCACGUGCGCGUGAAAGAGAGAAGUGAACCAGAGAAACACACGUUAAGGUAUAUUACCUGGUA [G54A U55A] | 0.39
GUCCUCUUUCACGUGCGCGUGAAAGAGAGAAGUGAACCAGAGAAACACACGUUAGGGUAUAUUACCUGGUA [G54A U55G] | 0.162
GUCCUCUUUCACGUGCGCGUGAAAGAGAGAAGUGAACCAGAGAAACACACGUUAUGGUAUAUUACCUAGUA [G54A G68A] | 0.206
GUCCUCUUUCACGUGCGCGUGAAAGAGAGAAGUGAACCAGAGAAACACACGUCGUGGUAUAUUACCUGGCA [U53C U70C] | 1.04
GUCCUCUUUCACGUGCGCGUGAAAGAGAGAAGUGAACCAGAGAAACACACGUCGUGGUAUAUUACCUGGGA [U53C U70G] | 0.765
GUCCUCUUUCACGUGCGCGUGAAAGAGAGAAGUGAACCAGAGAAACACACGUUCCGGUAUAUUACCUGGUA [G54C U55C] | 0.245

Reference: the RNAGym collection of RNA variant scans (doi:10.7554/elife.80360)
